Literature values as cited in patent US11878044B2, “Combination therapy for ischemia” (NoNO Inc., priority 2011, dated 2024).

Molecular target: binding of NMDAR 2B to PSD-95 (Homo sapiens, UniProt P78352)
Conditions: reported by Bach

Chain of binding of NMDAR 2B to PSD-95 (P78352 whole entry): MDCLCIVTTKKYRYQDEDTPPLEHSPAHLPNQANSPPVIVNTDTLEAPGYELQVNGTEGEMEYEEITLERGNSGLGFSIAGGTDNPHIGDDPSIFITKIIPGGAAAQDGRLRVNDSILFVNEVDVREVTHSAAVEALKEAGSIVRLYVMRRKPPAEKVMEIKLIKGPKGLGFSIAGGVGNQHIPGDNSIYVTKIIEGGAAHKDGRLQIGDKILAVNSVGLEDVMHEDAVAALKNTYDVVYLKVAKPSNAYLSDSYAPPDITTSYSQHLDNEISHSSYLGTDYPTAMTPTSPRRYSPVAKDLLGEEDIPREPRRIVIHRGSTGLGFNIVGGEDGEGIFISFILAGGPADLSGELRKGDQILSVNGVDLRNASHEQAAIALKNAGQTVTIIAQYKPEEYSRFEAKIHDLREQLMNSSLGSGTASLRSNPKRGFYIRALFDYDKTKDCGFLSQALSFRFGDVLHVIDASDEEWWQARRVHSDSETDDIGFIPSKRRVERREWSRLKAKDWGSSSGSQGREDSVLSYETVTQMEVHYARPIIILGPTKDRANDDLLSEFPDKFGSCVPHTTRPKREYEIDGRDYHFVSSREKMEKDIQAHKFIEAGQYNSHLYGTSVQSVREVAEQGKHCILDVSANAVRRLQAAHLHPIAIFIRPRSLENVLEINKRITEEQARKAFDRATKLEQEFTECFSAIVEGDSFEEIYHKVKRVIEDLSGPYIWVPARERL

Substance: IESDV
- inhibiting binding of NMDAR 2B to PSD-95: effective in inhibiting binding of NMDAR 2B to PSD-95
